Patent US9435807B2, “Use of leucyl tRNA synthetase” (Medicinal Bioconvergence Research Center, priority 2011, dated 2016)

How the values were obtained:
Type in all cases: biochemical
CC(C)C[C@H](N)C(=O)O [1] = assay: ATP-PPi exchange assay, WT LRS; details: other: absence of tRNA^Leu (ATP-PPi exchange); pH 7.6; 37.0 °C
Procedure: The ATP-PPi exchange reaction was performed in a reaction mixture containing 2 mM [^32P]pyrophosphate (PPi) (80.70 mCi/mL), 50 mM HEPES-KOH (pH 7.6), 2 mM MgCl2, 8 mM KF, 4 mM ATP, and various concentrations of leucine and 25 nM of LRS. Reaction were initiated with enzymes and conducted in a 37° C. heat block. Aliquots (10 ul) were taken at different time points, and the reactions were stopped using lml of quenching buffer (50 mM NaPPi, 3.5% HC1O4, 2% activated charcoal). The charcoal suspension was filtered through a Whatman GF/A filter, washed four times with 5 ml of water and rinsed with 10 ml of 100% ethanol. The charcoal powder on the filters was dried, and the synthesized [^32P]ATP was counted using a scintillation counter (Beckman Coulter).

CC(C)C[C@H](N)C(=O)O [2] = system: T1, CC(C)C[C@H](N)C(=O)O; assay: Leucylation assay, LRS F50A/Y52A mutant; details: other: LRS F50A/Y52, leucylation, substrate leucine; pH 7.6; 37.0 °C
T1 construct: made in house
Procedure: (§1) In FIG. 5b, leucylations by LRS WT and mutants (F50A/Y52A, F50A, and Y52A) were carried out by using 4 μM tRNALeu and 50 nM enzymes.
(§2) The leucylation assay was carried out in a buffer containing 1 mM spermine, 50 mM HEPES-KOH (pH7.6), 25 mM KCl, 5 mM MgCl2, 4 mM ATP, 2 mg/ml bovine liver tRNA^Leu, various concentrations of [^3H]Leu (60 Ci/mmol), and 10-100 nM of LRS. Reactions were initiated with enzyme and conducted in a 37° C. heat block. Aliquots (10 ul) were taken at different time points and quenched on Whatman filter pads that were presoaked with 5% trichloroacetic acid (TCA). The pads were washed three times for 10 min each with cold 5% TCA, and once with cold 100% ethanol. The washed pads were then dried. Radioactivity was quantified in a scintillation counter (Beckman Coulter)

CC(C)C[C@H](N)C(=O)O [3] = assay: Leucylation assay, LRS WT; details: pH 7.6, 37.0 °C
Procedure: as §1, §2

[4] = other: LRS WT, leucylation, substrate leucine

Sequence of LRS WT (Homo sapiens) (chain, as listed by the source): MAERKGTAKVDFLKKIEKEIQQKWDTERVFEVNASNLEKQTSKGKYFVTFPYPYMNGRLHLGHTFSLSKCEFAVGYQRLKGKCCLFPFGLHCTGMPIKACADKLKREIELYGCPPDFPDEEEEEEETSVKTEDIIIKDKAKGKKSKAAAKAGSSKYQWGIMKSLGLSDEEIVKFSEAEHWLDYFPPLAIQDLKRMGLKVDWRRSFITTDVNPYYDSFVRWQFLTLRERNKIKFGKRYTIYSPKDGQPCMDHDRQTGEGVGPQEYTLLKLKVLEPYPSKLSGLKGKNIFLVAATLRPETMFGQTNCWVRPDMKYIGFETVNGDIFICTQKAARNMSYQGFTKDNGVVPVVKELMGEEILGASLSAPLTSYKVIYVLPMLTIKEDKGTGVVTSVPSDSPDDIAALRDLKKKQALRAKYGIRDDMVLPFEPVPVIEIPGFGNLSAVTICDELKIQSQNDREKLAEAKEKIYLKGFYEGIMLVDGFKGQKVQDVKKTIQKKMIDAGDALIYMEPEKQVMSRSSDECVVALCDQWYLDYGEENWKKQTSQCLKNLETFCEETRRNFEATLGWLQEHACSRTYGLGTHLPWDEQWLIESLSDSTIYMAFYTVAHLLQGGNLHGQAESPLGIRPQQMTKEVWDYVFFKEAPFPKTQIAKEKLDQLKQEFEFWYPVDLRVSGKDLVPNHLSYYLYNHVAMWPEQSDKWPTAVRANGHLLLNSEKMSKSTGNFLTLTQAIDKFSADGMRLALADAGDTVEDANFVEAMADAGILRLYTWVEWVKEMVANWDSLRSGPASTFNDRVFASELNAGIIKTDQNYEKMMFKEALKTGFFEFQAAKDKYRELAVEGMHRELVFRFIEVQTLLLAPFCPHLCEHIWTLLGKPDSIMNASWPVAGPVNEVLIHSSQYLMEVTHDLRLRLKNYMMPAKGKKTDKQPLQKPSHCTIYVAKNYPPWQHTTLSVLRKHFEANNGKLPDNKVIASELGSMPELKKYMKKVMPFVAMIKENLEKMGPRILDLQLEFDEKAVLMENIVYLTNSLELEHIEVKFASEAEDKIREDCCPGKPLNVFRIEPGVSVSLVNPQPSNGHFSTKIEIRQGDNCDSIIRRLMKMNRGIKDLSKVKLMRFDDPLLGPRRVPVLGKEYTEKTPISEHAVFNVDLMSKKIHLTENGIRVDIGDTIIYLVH
Sequence of LRS (Homo sapiens) (chain, as listed by the source): as above
Sequence of LRS F50A/Y52 (Homo sapiens; F50A/Y52A) (chain, as listed by the source F50A F50A Y52A): as the sequence (chain, as listed by the source) above, with F50A, Y52A counted along it

For LRS (Homo sapiens), the Km (CC(C)C[C@H](N)C(=O)O [1]) was 143 ± 61 µM.
With LRS F50A/Y52 (Homo sapiens; F50A/Y52A) the Km (CC(C)C[C@H](N)C(=O)O [2]) was 536 ± 63 µM.
LRS WT (Homo sapiens) was tested, and the Km (CC(C)C[C@H](N)C(=O)O [3]; [4]) was 15.9 ± 0.4 µM, the kcat (CC(C)C[C@H](N)C(=O)O [3]; [4]) was 0.368 ± 0.009 s⁻¹ and the kcat/Km (CC(C)C[C@H](N)C(=O)O [3]; [4]) was 22900 ± 570 M⁻¹ s⁻¹. The Km (CC(C)C[C@H](N)C(=O)O [3]; other: presence of tRNA^Leu (leucylation)) was 15.9 ± 0.4 µM.
